Our source for the Kd and fold increase in affinity values is patent US20150330991A1, “METHOD FOR IMPROVING TARGET AFFINITY OF PEPTIDE” (GWANGJU INSTITUTE OF SCIENCE AND TECHNOLOGY, priority 2012, published 2015).

Assay [1] deals with vascular endothelial growth factor receptor 1 (VEGFR1) (UniProt P17948). The experiment in a line: SPR (Biacore X), VEGFR1 immobilised on a CM5 chip per paragraph 186; four sensorgrams with fitted curves.
Assay [2] has the same target. The experiment in a line: SPR (Biacore X), VEGFR1 immobilised on a CM5 chip per paragraph 186; compared with the linear peptide CQRPPR at 1 mM. In general terms: SPR reads the build-up and loss of mass on a sensor chip optically.

Chain of vascular endothelial growth factor receptor 1 (VEGFR1) (P17948 27-756 limits assumed): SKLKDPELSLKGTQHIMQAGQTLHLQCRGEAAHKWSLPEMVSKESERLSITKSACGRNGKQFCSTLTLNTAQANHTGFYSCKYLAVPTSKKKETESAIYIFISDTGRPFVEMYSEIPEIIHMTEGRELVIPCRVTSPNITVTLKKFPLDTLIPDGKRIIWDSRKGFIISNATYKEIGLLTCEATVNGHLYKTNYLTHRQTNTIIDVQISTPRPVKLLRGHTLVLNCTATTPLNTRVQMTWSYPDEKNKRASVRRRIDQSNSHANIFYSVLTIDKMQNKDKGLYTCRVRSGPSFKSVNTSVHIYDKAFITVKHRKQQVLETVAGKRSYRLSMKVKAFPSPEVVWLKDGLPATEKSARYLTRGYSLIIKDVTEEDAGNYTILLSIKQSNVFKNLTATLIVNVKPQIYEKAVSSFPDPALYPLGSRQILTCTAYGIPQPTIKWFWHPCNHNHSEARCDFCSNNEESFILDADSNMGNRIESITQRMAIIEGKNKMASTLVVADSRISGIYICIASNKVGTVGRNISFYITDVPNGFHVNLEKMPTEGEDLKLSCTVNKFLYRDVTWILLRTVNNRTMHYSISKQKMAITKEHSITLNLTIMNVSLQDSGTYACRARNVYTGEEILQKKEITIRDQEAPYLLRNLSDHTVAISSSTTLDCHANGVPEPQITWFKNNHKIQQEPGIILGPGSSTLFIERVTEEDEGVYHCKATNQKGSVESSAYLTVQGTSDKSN

In assay [1], “bipodal peptide drawn as CQRPPR-GGG-[W--W hairpin]-G-RIPKNR” had a Kd of 212 nM. For the same substance, the fold increase in affinity in assay [2] was over 10000 fold.

A word on the Kd: it is the equilibrium constant for the complex coming apart. A high value points to lower affinity.
